“Also recorded” adds a separate entry of the source.
Tests used:
AMPK = assay: Glomerular AMPK activity (p-AMPKα immunostain) in adiponectin KO mouse kidney; format: in vivo; settings: adiponectin KO mice, adiponectin (gAd) treatment
Method: Immunohistochemistry: Immunocytochemistry was performed as described previously (30). Differentiated podocytes seeded on coverslips were serum-Starved overnight and globular adiponectin was added. After 24 hours of adiponectin introduction, cells were fixed in 3.7% paraformaldehyde. Incubation with primary antibody p-AMPKα at 1:50 dilution (Cell Signaling Technology) was performed in blocking solution at 4° C. overnight Cells were then incubated with secondary anti rabbit IgG conjugated to an immunofluorescent dye (Alexa 594, Invitrogen, Carisbad, Calif.) for 30 minutes at room temperature. Nuclear stain was performed with Hoechst 33342 (Invitrogen). Fluorescence pictures were obtained using confocal laser fluorescence microscope (LSM-510, Carl Zeiss, Jena, Germany). Immunostaining of paraffin-embedded mouse kidney was performed as described previously (26) with p-AMPKα (Thr172) rabbit monoclonal antibody (31). Quantitation of p-AMPKα positive cells was performed on 50 glomeruli from 4 mice in each group.
Immunohistochemistry: Immunocytochemistry was performed as described previously (30). […] Fluorescence pictures were obtained using confocal laser fluorescence microscope (LSM-510, Carl Zeiss, Jena, Germany). […] Quantitation of p-AMPKa positive cells was performed on 50 glomeruli from 4 mice in each group. […] Images were captured by confocal laser fluorescence microscope.

[1] = tested on: Adiponectin KO (Ad−/−) mice; assay: Urine albumin/creatinine ratio in treated adiponectin KO mice; format: in vivo, mouse; settings: AdKO mice at 4 months of age; gAd 25 μg twice daily for 10 days (gAd or fAd)
Method: (§1) Adiponectin administration and animal studies: The mice were treated with 25 μg of recombinant human globular domain adiponectin (gAd; PepROTech, Rocky Hill, N.J.) subcutaneously twice daily for 10 consecutive days. The control animals were given PBS alone. 24-hour urines from each mouse were collected twice: one week before the injections and on the last day of the injections. The urine albumin and creatinine were measured with a mouse Albuwell ELISA kit and a Creatinine Companion kit (Exocell, Philadelphia, Pa.) (25,26). The mice were sacrificed five hours after the final gAd injection under anesthesia. Portions of kidney cortex were fixed in buffered formalin and embedded in paraffin. A portion of kidney cortical tissue was cut into 1 mm^3 pieces and fixed in 2.5% glutaraldehyde
Interventional animal studies: The mice were treated with 25 μg of recombinant human globular domain adiponectin gAd (PepROTech, Rocky Hill, N.J.), administered 25 μg/mouse twice a day for 10 consecutive days or full-length adiponectin (fAd) was administered using an AAV vector (AAV2/8 CMV fAd virus 4×1011 GC/mouse for 10 days). A separate group of Ad−/− mice were treated with 5-aminoimidazole-4-carboxamide-1-beta-D-ribonucleoside (AICAR) with a single i.p. dose of 300 mg/kg. The control animals were given PBS alone or control AAV. 24-hour urines from each mouse were collected before treatment and on the last day of the treatment period. The urine albumin and creatinine were measured with a mouse Albuwell ELISA kit and a Creatinine Companion kit (Exocell, Philadelphia, Pa.) (26, 25). As an index of oxidant stress timed urine collections were also analyzed for hydrogen peroxide by Amplex red assay (Invitrogen/Molecular Probes, Carlsbad, Calif.) following the manufacturer's protocol. Portions of liver, muscle and kidney was snap-frozen in liquid nitrogen for RNA isolation. An additional aliquot of normal kidney was frozen in OCT for immunofluorescent staining. […]

Nox4 = Nox4 protein in cultured podocytes (immunoblot, confocal); format: cell-based, mouse; settings: adiponectin for 16 h
[2] = tested on: Adiponectin KO (Ad−/−) mice; assay: Podocyte foot process effacement by electron microscopy in adiponectin KO mice; format: in vivo, mouse; settings: gAd treatment, EM
Method: as §1, with “A portion of kidney cortical tissue was cut into 1 mm^3 pieces and fixed in 2.5% glutaraldehyde” left out
Interventional animal studies: The mice were treated with 25 μg of recombinant human globular domain adiponectin gAd (PepROTech, Rocky Hill, N.J.), administered 25 μg/mouse twice a day for 10 consecutive days or full-length adiponectin (fAd) was administered using an AAV vector (AAV2/8 CMV fAd virus 4×1011 GC/mouse for 10 days). […] The urine albumin and creatinine were measured with a mouse Albuwell ELISA kit and a Creatinine Companion kit (Exocell, Philadelphia, Pa.) (26, 25). As an index of oxidant stress timed urine collections were also analyzed for hydrogen peroxide by Amplex red assay (Invitrogen/Molecular Probes, Carlsbad, Calif.) following the manufacturer's protocol. […]

B1: adiponectin: 30 kDa adipocyte-secreted protein; in the first series of tests the recombinant globular domain was used, later gAd or fAd (protein, UniProt Q15848 19-244, looked up)
Adiponectin: ETTTQGPGVLLPLPKGACTGWMAGIPGHPGHNGAPGRDGRDGTPGEKGEKGDPGLIGPKGDIGETGVPGAEGPRGFPGIQGRKGEPGEGAYVYRSAFSVGLETYVTIPNMPIRFTKIFYNQQNHYDGSTGKFHCNIPGLYYFAYHITVYMKDVKVSLFKKDKAMLFTYDQYQENNVDQASGSVLLHLEVGDQVWLQVYGEGERNGLYADNDNDSTFTGFLLYHDTN
AMPK activity in glomerular podocytes (p-AMPKα positive cells per glomerulus) (AMPK): improved; also recorded: increased
Urine albumin/creatinine ratio (albuminuria) [1]: normalized albuminuria levels; also recorded: restores normal albuminuria
Podocyte Nox4 protein (Nox4): sufficient to suppress podocyte Nox4
Podocyte foot process fusion / effacement [2]: improved podocyte foot process effacement; also recorded: restored podocyte foot processes
